The nanobody polyreactivity screen of Harvey et al. (2022)

Assay: yeast display, Sf9 membrane polyspecificity reagent, FACS + sequencing; frameworks hold sequencing errors
In short: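 In a synthetic yeast display library (Saccharomyces cerevisiae BJ5465), nanobody expression was induced with galactose for 36–48 hours. FACS gates were set low and high (top ~1%) using anti-HA fluorescence for expression and streptavidin fluorescence for binding of the Sf9 membrane reagent. Each polyreactivity label is drawn from the gate of origin.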

Sequence | polyreactivity (PSR sort gate)
QVQLVESGGGLVQAGGRLRLSCAASGFTFKLYAMGWYRQAPGKERELVASISRSGGSTFYADSVKGRFTISRDTAKNTGYLQMNSLKPEDTAVYYCATGWYYSPYNYWGQGTQVTVSS | high polyreactivity
QVQLVESGGGLVQAGGSLRLSCAASGITFRKYVMGWYRPAPGKERELVAAITRGGSTNYADSVKGRFTISRDNAKNTVYLQMNSLKPEDTAVYYCATRQSWYPRWMDYWGQGTQVTVSS | high polyreactivity
QVQLVESGGGLVQAGGSLRLSCAASGSIFRYYAMGWYRQAPGKERELVASISSGAGSTYYADSVKGRFTISRDNAKNTVYLQMNSLKPEDTAVYYCAARPGYSAFYYWGQGTQVTVSS | high polyreactivity
QVQLVESVGGLVQAGGSLRLSCAASGGIFQPNAMGWYRQAPGKERELVATISQRGGSPYYSDSVKGRFTISRDNAKNTVYLQMNSVKPEDTAVYYCAAEVYYYYDAIYIARYEYWGQGTQVTVSS | low polyreactivity
QVQLVESGGGLVQAGGSLRLSCAASGSIFSRYAMGWYRQSPGKERELVAAISQRAGSTYYADSVKGRFTISRDNAKNTVYLQMNSLKPEDTAVYYCAARRRGRKERGEDYWGQGTQVTVSS | high polyreactivity
QVQLVESGGGLVQAGCSLRLSCAASGRIFDNYVMGWYRQAPGQERELVAAISSGGGTYYADSVTGRFTISRDNAKNTVYLQMNSLKPEDTAVYYCAKRRVYDRSFGRYDYWGQGTQVTVSS | low polyreactivity
QDQLVESGGGLVQAGGSLRLSCAASGFTFSVNAMGWYRQAPGKERELVAAITRGRSTSYADSVKGRFTISRDNAKNTVYLQKNSLKPEDTAVYYCAASYSGGTWSGYYYWGQGTQVTVSS | high polyreactivity
QVQLVESGGGLVQAGGSLRLSCAASGFIFWAYDMGWYRQAPGKERELVAGISKRGGTTYYADSVKGRFTISRDNAKNTVYLQMNSLKPEDTAVYYCAVRLYLEMDYWGQGTQVTVSS | high polyreactivity
QVQLVESGGGLVQAGGSLRLSCAASGSILWYYAMGWYRQAPGKERELVATITSGGSTYYADSVKGRFTMSRDNAKNTVYLQMNILKTEDTAVYYCNADLAVDEYVYWGQGTQVTVSS | low polyreactivity
QVQLVESGGGLVQAGGSLRLSCAASGFTFSAYAMGWYRQAPGKERELVAAISRRGGSTYYADSVKGRFTISRDTAKNTVYLQMNSVKPEDTAVYYCATDYPPGYDYWGQGTQVSVSS | high polyreactivity
QVQLVESGGGLVQAGGSLRLSCAASGSIFSRNAMGWYRQAPGKEREFVARISWSSTSTNYADSVKGRFTISRDNAKNTVYLQMISLKPEVTAVDYCSADFRGDRRFDYWGQGTQVTVSS | low polyreactivity
QVQLVESGGGLVQAGGSLRLSCAASGYTFQWYDMGWYRQAPGKERELVASISWRGGSTYYADSVKGRFSISRDNATITVSLQMNSLKPEDTAVYYCAASLWPDYEYDYWGQGTQVTVSS | low polyreactivity
QVQLVESGGGLVQAGGSLRLSCAASGFTIWYTMGSYRQAPGKEREFLAAITSGGGSTYYAESVKGRFTISRDNAKNTVYFQMNSLKPEDTAVYYCAARERSYRAYGYWRQGTQVTVSS | high polyreactivity
QVQLVESGGGLVQAGGSLRLSCAASGIIFQYYVMGWYRQAPGKERELVAAIDKSGGSTYYADSVKGRFTISRDNAKNTVYLQMNSLKPEDTAVYYCAATSYAHKYYGYFGAIKYEYWGQGTQVTVSS | low polyreactivity
QVQLVESGGGFVQAGGSLRLSCAACGITFNPNAMGWYRQAPGKERELVAAITANGGNTYYADSVKGRFTISRDNAKNTVYLQMNSLKPEDTAVYYCARRTRRSAGYGEYYYWGQGTQVTVSS | high polyreactivity
QVQHVESGGCLVQAGGSLRLSCAASGLIIKSYVMGWYRQAPGKERELVAGITGSGGTTYYADSVKGRFTISRDNAKNTVDLQMNSLKPEDTAVYYCDARSRSRPKYDYWGQGTQVTVSS | high polyreactivity
QFQLVESGGRLVQAGGSLRLSCAASGFIFWYNAMGWYRQAPGKEREFVAAISSGGSTTYADSVKGRFTISRDNAKNTVYLQMNSLKPEDTAVSYCAAGSYDYDYWGQGTQVTVSS | low polyreactivity
QVQLVESGGGLVQAGGSLRLSCAASGSTFTRNTMGWYKQAPGKERELVAAISRRGGRTDYADSVKGRFTISRDNAKNTVYLQMNSLKPEDTAVYYCAADPITVDQNPRYGYWGQGTQVTVSS | high polyreactivity
QVQLVESGGGIVQAGGSLRLSCAASGYTISYYAMGCYRQAPGKERELVASISWRGGGTYYADSVKGRFTISRDNAKNTVYLQMNSLKAEDTAVYYCNIDYYATPYGYWGQGTQVTVSS | low polyreactivity
QVQLVESGGGLVQAGASLRLSCAASGRTFYRYAMGWYRQAPGKEREFVAAISNGGSNTRYADSVKGRFTISRDTAKNNVYFQMNSLKPEETAVYYCAARAYQHYNWGQGTQVTVSS | high polyreactivity
QVQLVESGGGLVQAGGSLRLSCAASGRIIGYYAMGWYRQAPGKERELVAAISRRGGSTYYADSVKGRFTISRDNAKNTVYLQMNSLKPEDTAVYYCATLTLESFSALYYWGQGTQVTVSS | low polyreactivity

Sequence | polyreactivity (PSR sort gate)
QVQLVESGGGLVQAGGSLRLSCAASGGIFPYYAMGWYRQAPGKERELVAGISQNDGRTYYADSVKGRFTISRDNAKNTVYLQMNSLKPEDTAVYYCATDYWYPRYGYWGQGTQVTVSS | low polyreactivity
QVQLVESGGGLVQAGGSLRLSCAASGSIFVSYAMGWYRQAPGKERELVAAITSIGTRTYYADSVKGRFTISRDNAKNTVYLQINSLKPEDTAVYYCNAPRFWSRHGLRDYWGQVTQVTVSS | high polyreactivity
QVQLVESGGGLFQAGGSLSLRCAASGSIFEVNALGWDRQGPGKERELVAAISQRGTRTYYADSVKGRFTMSRDYAKNTVYLQMNILKPEDTAVYYCNRGGWRQYDSWGQGTQVTVST | high polyreactivity
QVQLVESGGGLVQAGGSLRLSCAASGRTSSIYTMGWYRQAPGKERELVAAINSGGRTYYADSVKGRFTISRDNAKNTVYLQMNSLKPEDTAVYYCAARRSTYYWGGVTYTYYWGQGTQVTVSS | high polyreactivity
QVQLVESGGGLVQAGGSLRLSCAASGRTFIFYAMGWYRPAPGNVRELVAAITLRGGGTDYADSVKGRFTISRDNAKNTVYLQMTSQQPEETAVYYCNADGYPVPRRFDPYSYLSDYWGQGTQVTVSS | low polyreactivity
QVQLVESGGGLVQAGGSLRLSCAASGSIFVKNVMGWYRQAPGKERELVAAITRGGRTYYADSVKGRFTISRDNAKNTVYLQMNSLKPEDTAVYYCNAYRLSYTYGYWGQGTQVTVSS | high polyreactivity
QVQLVESAGGLVQAGGSLRLSCAASGSIFPAYAMGWYRQAPGKERELVASITTGDRTYYADSVKGRFTISRDNAKNTVYLQMNSLKPEDTAVYYCAALYYVHYYSAHYPTLSRHEYWGPGTQVTVSS | high polyreactivity
QVQLVESGGRLVQAGGSLRLSCAATGSTFYKNPMGRYRHAPRKEREVVAAISTSGGSTYYADSLKGRFTISRDNAKNTVYLHMNRLKPEDTAVNYCATRRRIPSSCYYDNDYWGQGTQVTVSS | high polyreactivity
QVQLVESGGGLVQAGGSLRLSCAASGPTFYYYAMGWYRQAPGKERELVAAITWSGGSTYYADSVKGRFTISRDNAKNTVYLQMNSLKPEDTAVYYCAADVTYSRYEYWGQGTQVTVSS | low polyreactivity
QVQLVESGGGLVQAGGSLRLSCAASGGILRQNTMGWYRQAPGKETELVAAISSSGGRTYYADSVKGRFTISRDNAKNTVYLQMNSLKPEDTAVYYCARGYSWSVGYPRVHDMDYWGQGTQVTVSS | high polyreactivity
QVQLVESGGGIVQAGGSLRLSCAASGSIFQYNAMGWYRQAPGKERELVAAITRGDSTYYADSVKGRFTISRDNAKNTVYLQMNSLKPEDTAVYYCAARPRGKYDYWGQGTQVTVSS | high polyreactivity
QVQLVESGGGLVQAGGSLRLSCAASGGIFRYYAMGWYRQAPGKERELVAAISKRGGSTYYADSVKGRFTISRDNAKNTVYLQMNSLKPEDTAVYYCAAEGYYGSSYGYWGQGTQVTVSS | high polyreactivity
QVQLVESGGGLVQAGGSLRLSSAASGFTFAYNDLGWSRQAPGKERELVATITNSGASTSYADSEKGRFTISRDNAKNTVYLQMNSLKPEDTAVYYCNVGLWRYVRFTGRYYPYDYWGQGTQVTVSS | high polyreactivity
QVHLVESGGGLVQAGGSLRLSCAASGRTFYYYAMGWYRQAPGKERELVAAISGSGTNTYYADSVKGRFTISRDNAKNTVYLQMNRLKPEDTAVYYCAAEYFGFYTDGGVFDLYYWGQGTQVTVSS | low polyreactivity
QLQLVESGGGLVQAGGSLRRSCAPSGRILWVNAMGWSRQAPGKERELVAAISLSGGRTYYADSVKGRFTISRDNAKNTVYLQMNSLKPEDTAVYYCAARTVNYYYTTGDYWGQGTQVTVSS | low polyreactivity
QVQLVESGGGLVQAGGSLRCSCAASGFTFYSYAMGWYRQAPGKERELVAAITESGGSTYYADSVKGRFTISRDNAKNTVYLQMNSLKPEDTAVYYCAAQFAQRPQYYYFVWYDYWGQGTQVTVSS | low polyreactivity
QVQLVESGGGLVQAGGSLRLSCAASGSIFRYNAMGWYRPAPGTERELVAAITSGDSTYYADSVKGRFTISRDNAKNTVYLHMNSLKPEDTAVYYCARRSYATYSFRFDYWGQGTQVTVSS | low polyreactivity
QDQLVESGGGLVQAGGSLRLSCAASGRTFPYKAMGWYRQAPGKERELVAAISYAGGRTYYADSVKGRFTISRDTAKNTVYLQMNSLKPEDTAVYYCYALGSGREDDYWGQGTQVTVSS | high polyreactivity
QVQLLESGGGLVQAGGSLRLSCAASGLTFVRYDMGWDRQAPGKERELVAAISSSGGSTNYADSVKGRFTISRDNAKNTVYLQMNSLKPEDTAVYYCAADYTWRFLRFGYWGQGTQVTVSS | high polyreactivity
QVQLVESGGGLVQAGGILRLSCAATGSTFVNNVMGWYRQGPRKESDLFAAISRRATSTRYADSVKGRFTISRDHAKNTVYLQMNSLKPEDTEVYYCAATLYVGVTGYGYWGQGTQVTVSS | high polyreactivity
